Here are results for one substance from publication PMC8605356.

Assay [1] has as its target α-D-fructofuranosidase and difructose dianhydride I synthase/hydrolase from Bifidobacterium dentium (Bifidobacterium dentium JCM 1195). Nature of the assay: SEC; size-exclusion chromatography of the purified protein; conditions of this analysis not told (the purification used Hiload 16/60 Superdex 200 pg in 25 mM Tris HCl pH 7.0, 300 mM NaCl). For orientation: In gel filtration, larger molecules generally elute earlier.

Assay [2] shares this target. Description: crystal structure; sitting drop vapor diffusion at 20 °C, 10 mg/ml αFFase1 in 5 mM Na acetate pH 6.0, reservoir 20% PEG 3350 and 0.2 M disodium tartrate; ligand-free and cocrystals with D-fructose or D-arabinose; hexamer in the asymmetric unit.

One may read the stoichiometry N as a count of units in the complex or per binding partner. Consider “α-D-fructofuranosidase and difructose dianhydride I synthase/hydrolase from Bifidobacterium dentium (enzyme)”, for which the stoichiometry N in assay [1] and in assay [2] was 6 each time.
